{"source": "the nanobody polyreactivity screen of Harvey et al. (2022)"}
{"assay": "yeast display, Sf9 membrane polyspecificity reagent, FACS + sequencing; frameworks hold sequencing errors", "summary_of_the_method": "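Nanobodies from a synthetic yeast display library (Saccharomyces cerevisiae BJ5465), induced 36–48 hours with galactose, were stained 1 hour at 4 °C with 10% biotinylated, detergent-solubilized Sf9 membrane reagent, enriched on streptavidin microbeads, then FACS-sorted. Anti-HA (expression) and streptavidin (reagent binding) fluorescence set low and high (top ~1%) gates. Polyreactivity labels come from the gate of origin. Genes were colony-PCR amplified, MiSeq 2 × 250 sequenced and filtered by CDR length.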"}
{"sequence": "QVQLVESGGGLVQAGGSLRLSCAASGRTFSVYDMGWYRQAPGKERELVARIRSGGSTYYADSVKGRFTISRDNAKNTVYLQMNSLKPEDTAVYYCAADGFASRWYAYYYWGQGTQVTVSS", "polyreactivity (PSR sort gate)": "high polyreactivity"}
{"sequence": "QVQLVESGGGLVQAGGSLRLSCAASGRTFSYNAMGWYRQAPGKERELVAAITWRGSTTYYADSVKGRFTISRDNAKNTVYLQMNSLKPEDTAVYYCAADTGQPYILDYWGQGTQVTVSS", "polyreactivity (PSR sort gate)": "low polyreactivity"}
{"sequence": "QVQLVESGGGLVQAGGSLRLSCAASGRTFSYYAIGWYRQAPGTERELVAGISYSGGTTYYADSVKGRFTISRDNAKNTVYLQMNSLKPEDTAVYYCATRYWTFSGYDYWGQGTQVTVSS", "polyreactivity (PSR sort gate)": "low polyreactivity"}
{"sequence": "QVQLVESGGGLVQAGGSLRLSCAASGRTFSYYAMGWYREAPGNERELVAAITTGGRTYYADSVKGRFTISRDNAKNTVYLQMNSLKPEDTAVYYCAADYTVSYPYYEYYYWGQGTQVTVSS", "polyreactivity (PSR sort gate)": "high polyreactivity"}
{"sequence": "QVQLVESGGGLVQAGGSLRLSCAASGRTFSYYAMGWYRQAPGKERELVAAISSGGSTYYADSVKGRFTISRDNAKNTVYLQMNSLKTEVSEVYYCAKSYYRYQVSSRMYYRGQGTQVTVSS", "polyreactivity (PSR sort gate)": "high polyreactivity"}
{"sequence": "QVQLVESGGGLVQAGGSLRLSCAASGRTFSYYAMGWYRQAPGKERELVAAIYRAGRTNYADSVKGRFTISRDNAKNNVYLQMHSLKPEDTAVYYCAADLAYGRPFVSYRTRACGQGTQVTVSS", "polyreactivity (PSR sort gate)": "high polyreactivity"}
{"sequence": "QVQLVESGGGLVQAGGSLRLSCAASGRTFSYYAMGWYRQAPGKERELVATISWSGSTYYADSVKGRFTLSRDNAKNTVYLQMNSLKPEDTAVYYCAARYRYAGWYSVWYDYWGQGTQVSVSS", "polyreactivity (PSR sort gate)": "high polyreactivity"}
{"sequence": "QVQLVESGGGLVQAGGSLRLSCAASGRTFSYYAMGWYRQAPGKERELVAVISVSGGSTYYADSVKGRFTISRDNAKNTVYLQMNSLKPEDTAVYYCNVDLYYGYDYWGQGTQVTVSS", "polyreactivity (PSR sort gate)": "low polyreactivity"}
{"sequence": "QVQLVESGGGLVQAGGSLRLSCAASGRTFSYYTMGWDRQAPGKERELVASITSDSSTNYADSVKGRFTISRDNAKNTVYLQMNSLKPEHTAVYYCAADHWIAPRRDYWGQGTQVTVSS", "polyreactivity (PSR sort gate)": "low polyreactivity"}
{"sequence": "QVQLVESGGGLVQAGGSLRLSCAASGRTFTEYAMGWYSQAHGKERELVARISIGDSTYYADSVKGRFTISRDNAKNTVYLQMNSLKPEDTAVFYCNAEYSRSYRYDEGYWGQGTQVTVSS", "polyreactivity (PSR sort gate)": "low polyreactivity"}
{"sequence": "QVQLVESGGGLVQAGGSLRLSCAASGRTFTFKAMGWYRQAPGKERELVAAMTSTGSTSYADSVKGRFTISRDNAKNTVYLQMNSLKPEDTAVYYCAKGYVIPYVHHVRPYGGEYLGQGTQVTVSS", "polyreactivity (PSR sort gate)": "low polyreactivity"}
{"sequence": "QVQLVESGGGLVQAGGSLRLSCAASGRTFTFYTMGCYRQSPGKERELVAAITRSGGGTYYADSVKGRFTISRDNAKNTVYLQMNSLKPEDTAVYYCAAYNRNAFHWGQGTQVTVSS", "polyreactivity (PSR sort gate)": "high polyreactivity"}
{"sequence": "QVQLVESGGGLVQAGGSLRLSCAASGRTFTGYAMGWYRQAPGKERELVAAISASGGSTYYADSVKGRFTISRDIAKNTVYFQMNSLKPEDTAVYYCAAETWYSVLWEEGYDYWGQGTQVTVSS", "polyreactivity (PSR sort gate)": "low polyreactivity"}
{"sequence": "QVQLVESGGGLVQAGGSLRLSCAASGRTFTGYAMGWYRQAPGKERELVASISGSGGRTNYADSVKGRFTISRDNAKNTVYLQMNSLKPEDTAVYYCNARAHSYRKSSYIYLPYSYDYWGQGTQVTVSS", "polyreactivity (PSR sort gate)": "high polyreactivity"}
{"sequence": "QVQLVESGGGLVQAGGSLRLSCAASGRTFTGYAMGWYRQAPGKERELVASISSRGGSTYYADSVKGRFTISRDNAKNTVYLQMNSLKPEDTAVYYCAADSVRHTYSWWYAVDYWGQGTQVTVSS", "polyreactivity (PSR sort gate)": "high polyreactivity"}
{"sequence": "QVQLVESGGGLVQAGGSLRLSCAASGRTFTHNAMGWYRQAPGKERELVAGITSGGSTNYADSVKGRFTISRDNAKNTVYLQMNSLKPEDTAVYYCNKVFFWSRYKGYYYWGQGTQVTVSS", "polyreactivity (PSR sort gate)": "high polyreactivity"}
{"sequence": "QVQLVESGGGLVQAGGSLRLSCAASGRTFTHYAMGWYRQAPGKERELVAAISWSGGRTYYADSVKGRFTISRDNAKNTVYLQMNSLKPEDTAVYYCAADAFRGFYWGQGTQVTVSS", "polyreactivity (PSR sort gate)": "high polyreactivity"}
{"sequence": "QVQLVESGGGLVQAGGSLRLSCAASGRTFTKYAMGWYRQAPGKERELVAAISRSGGSSYYADSAPGRFTISRDNAKNTVYLQMNSLKPEDTAVYYCAARGQYRYSFGDYSWGQGTQVTVSS", "polyreactivity (PSR sort gate)": "high polyreactivity"}
{"sequence": "QVQLVESGGGLVQAGGSLRLSCAASGRTFTLNAMGWYRQAPGKEREFVAAISNSGVRTYYADSVKGRFTISRDNAKNTVYLQMNSLKPEDTAVYYCARTYQVGDSIDDYWGQGTQVTVSS", "polyreactivity (PSR sort gate)": "low polyreactivity"}
{"sequence": "QVQLVESGGGLVQAGGSLRLSCAASGRTFTLNAMGWYRQAPGKERELVATISRRGGSTYYADSVKGRFTISRDNAKNTVYLQMNSLKPEDTAVYYCNVDRLGQRYDYWGQGTQVTVSS", "polyreactivity (PSR sort gate)": "low polyreactivity"}
{"sequence": "QVQLVESGGGLVQAGGSLRLSCAASGRTFTNYAMGWYRQAPGKERELVAAISKRGGTTYYADSVKGRFTISRDNAKNTVYLQMNSLKPEDTAVYYCNKAKTAYRGQYDYWGQGTQVTVSS", "polyreactivity (PSR sort gate)": "high polyreactivity"}
{"sequence": "QVQLVESGGGLVQAGGSLRLSCAASGRTFTQNAMGWYRQAPAKERELVAAISKSGDRTYYADSVKGRFTISRDNAKNTVYLQMNSLKPEDTAVYYCAADTYVSYYWWQTEDDYWGQGTQVTVSS", "polyreactivity (PSR sort gate)": "high polyreactivity"}
{"sequence": "QVQLVESGGGLVQAGGSLRLSCAASGRTFTQYAMGWYRQAPGKEREFVAAINFSGSRTYYADSVKGRFTISRDNAKNTVYLQMNSLKPEDTAVYYCNKRGSVYTSSQRQHDYWGQGTQVTVSS", "polyreactivity (PSR sort gate)": "low polyreactivity"}
{"sequence": "QVQLVESGGGLVQAGGSLRLSCAASGRTFTQYAMGWYRQAPGKERELVAAISWRGGSTYYADSVKGRFTISRDNAKNTVYLQMNSLKPEDTAVYYCAKRYFRGYPLYDYWGQGTQVTVSS", "polyreactivity (PSR sort gate)": "high polyreactivity"}
{"sequence": "QVQLVESGGGLVQAGGSLRLSCAASGRTFTRYAMGWYRQAPGKERELVAAISRGGNTNYADSVKGLFTISRDNAKNTVYLQMNSLKPEDTAVYYCARVYGGYSVPSAYGSWGQGTQVTVSS", "polyreactivity (PSR sort gate)": "high polyreactivity"}
{"sequence": "QVQLVESGGGLVQAGGSLRLSCAASGRTFTSYAMGWYRQAPGKERELVAAISSSGSSTYYADSVKGRFTISRDNAKNTVYLQMNSLKPEDTAVYYCAVGGSFRYRVQYDYWGQGTQVTVSS", "polyreactivity (PSR sort gate)": "high polyreactivity"}
{"sequence": "QVQLVESGGGLVQAGGSLRLSCAASGRTFTSYVMGWYRQAPGKERELVAAISWSGDSTYYADSVKGRFTISRDNAKNTVYLQMNSLKPEDTAVDYCARVPPAAYVAYDYWGQGTQVTVSS", "polyreactivity (PSR sort gate)": "high polyreactivity"}
{"sequence": "QVQLVESGGGLVQAGGSLRLSCAASGRTFTVYAMGWYRQAPGKEREFVATISRSGGSTYYADSVKGRFTISRDNAKNTVYLQMNSLKPEDTAVYYCAARRSGRKYDYWGQGTQVTVSS", "polyreactivity (PSR sort gate)": "high polyreactivity"}
{"sequence": "QVQLVESGGGLVQAGGSLRLSCAASGRTFTWYAMGWYRQAPGKERELVAAITNGGRRYADSVKGRFTISRDNAKTTVYLQMNSLKPEDTAVYYCATQPLTWSSYRWDWRAQFDHWGQGTQVTVSS", "polyreactivity (PSR sort gate)": "low polyreactivity"}
{"sequence": "QVQLVESGGGLVQAGGSLRLSCAASGRTFTYNAMGWYRQAPGKDRELVARISFSGSSTYYADSVKGRFTISRDNAKNTVYLQMNSLKPEDTAVYYCATEAPYYIGGRYRYQRYDYWGQGTQVTVSS", "polyreactivity (PSR sort gate)": "high polyreactivity"}
{"sequence": "QVQLVESGGGLVQAGGSLRLSCAASGRTFTYNMGWYRQAPGKERELVAANDLRRLCEGALHNFTRQCDEYRLFTDEQPETGRYPVYYCNADPAWIWYTFDYWGQGTQVTVSS", "polyreactivity (PSR sort gate)": "low polyreactivity"}
{"sequence": "QVQLVESGGGLVQAGGSLRLSCAASGRTFTYYAMGWYIQAPGKEREFVASISLSGGRTYYADSVKGRFTISRDNAKNTVYLQMNSLKPEDTAVYYCNAYYPRVDRYDYWGQGTQVTVSS", "polyreactivity (PSR sort gate)": "low polyreactivity"}
{"sequence": "QVQLVESGGGLVQAGGSLRLSCAASGRTFTYYAMGWYRPAPGKERELVASISTTGRTYYADSVKGRFTISRDNAKNTVYLQMNSLKPEDTAVYYCATRSRYYYDYWGQGTQVTVSS", "polyreactivity (PSR sort gate)": "high polyreactivity"}
{"sequence": "QVQLVESGGGLVQAGGSLRLSCAASGRTFTYYAMGWYRQAPGKQRELVASINQNGGDTYYADSVKGRFTLSRDNAKNTDYLQMNSLKPADTAVYYCAAEAGYYVQTVAVDMGYWGQGTQVTVSS", "polyreactivity (PSR sort gate)": "low polyreactivity"}
{"sequence": "QVQLVESGGGLVQAGGSLRLSCAASGRTFVANAMGLYRQAPGKERELVAAISSSGGSTYYADSVKGRFTISRDYAKNTVYLQMNSLKPEDTAVYYCNRVGVYYRLYPYYYWGQGTQVTVSS", "polyreactivity (PSR sort gate)": "high polyreactivity"}
{"sequence": "QVQLVESGGGLVQAGGSLRLSCAASGRTFVDNAMGWYRQAPGKKRELVATISSGDSTTYADSVKGRFTISRDNAKNTVYLQMNSLKPEDTAVYYCAAAYGWSWYRYDYWGQGTQVTVSS", "polyreactivity (PSR sort gate)": "high polyreactivity"}
{"sequence": "QVQLVESGGGLVQAGGSLRLSCAASGRTFVFNAMGWYRQAPGKERELVAAITISGGSTYYADSVKGRFTISRDNAKNTVYLQMNSLKPEDTAVYYCNADSKIEVFSYIYDYWGQGTQVTVSS", "polyreactivity (PSR sort gate)": "high polyreactivity"}
{"sequence": "QVQLVESGGGLVQAGGSLRLSCAASGRTFVFNTMGWYRQAPGKERELVADISRGDSTNYADSVKGRFTISRDNAKNTVYLQMNSLKPEDTAVYYCAAKWRWSGSILYRYGYGYWGQGTQVTVSS", "polyreactivity (PSR sort gate)": "high polyreactivity"}
{"sequence": "QVQLVESGGGLVQAGGSLRLSCAASGRTFVFYAMGWYRPAPGKERELVADITWSDGNTYYADSVKGRFTISRDNAKNSVYLQMKSLKPEDTAVYYCAKVRTGQSRSVGYDYWGQGTQVTGSS", "polyreactivity (PSR sort gate)": "low polyreactivity"}
{"sequence": "QVQLVESGGGLVQAGGSLRLSCAASGRTFVFYAMGWYRQAPGKERELVAAITSSGGRTYYADSVKGRFTISRDNAKNTVYLQMNSLKPEDTAFYYCAAPYYPYKYDYWGQGTQVTVSS", "polyreactivity (PSR sort gate)": "low polyreactivity"}
{"sequence": "QVQLVESGGGLVQAGGSLRLSCAASGRTFVGNAMGWYRQAPGKERELVAAITVNGVRTYYADSVKGRFTSSRDNAKNTVYLQMNSLKPEATAVYYCARDALHYAGSLHRYGYWGQGTQVTVSS", "polyreactivity (PSR sort gate)": "low polyreactivity"}
{"sequence": "QVQLVESGGGLVQAGGSLRLSCAASGRTFVGNTMGWYRQAPGKERELVAAISSGGRTYYADSVKGRFTISRDNAKNTVYLQMNSLKPEDTAVYYCAARRRGKVVPTSQFDYWGQGTQVTVSS", "polyreactivity (PSR sort gate)": "high polyreactivity"}
{"sequence": "QVQLVESGGGLVQAGGSLRLSCAASGRTFVGYAMGWYRQAPGKERELLAAISKSGGRTYYADSVKGRFTISRDNAKNTVFLQMNSLKPDDTAVYYCNAVVVYYVDAGRYDYWGQGTQVTVSS", "polyreactivity (PSR sort gate)": "high polyreactivity"}
